# Results from the supplement of paper PMC12042874.
# ± gives the uncertainty stated by the source.
# Assay: amyloid nucleation score (Sup35N fusion, yeast selection) (log enrichment); library NNK1; higher = more nucleation; inactive = no reads after selection
# Method in brief: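 Nucleation score: DiMSum log enrichment of output over input reads, centred on the mode score of non-aggregating sequences. Only sequences with at least 100 input reads were kept. Reads came from Illumina sequencing of plasmid inserts before and after 7 days of growth at 30°C without adenine and uracil, in psi-negative yeast expressing Sup35N fused to peptides of 20 random codons after 24 hours of induction with 100 μM copper sulfate.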
row,Substance,amyloid nucleation score
1,TFSTGRACLNEVRNVGMFKM,0.75 ± 0.54
2,TFSYILDWFEVSLTHRGALI,0.192 ± 0.41
3,TFTPWKVDVLSRYRMQGCAQ,0.556 ± 0.47
4,TFWYLLNCVSRLFNF,-0.013 ± 0.57
5,TFYLFSRGSSLEIWG,5.72 ± 0.059
6,TFYNFAMSFKEVCCCMSWRG,7.143 ± 0.058
7,TFYSCHP,1.49 ± 0.37
8,TGCLVTWNIENLLRHQTFAM,0.227 ± 0.38
9,TGFLR,0.12 ± 0.4
10,TGIYYWNRKLGRYRLHVHVV,-0.15 ± 0.97
11,TGPDSISAYQHLFNCS,1.64 ± 0.54
12,TGRMGLTNRSEEFLSFLADS,-1.45 ± 0.89
13,TGSLWRLRTSACWVLNHRKS,-1.09 ± 1
14,TGWNGNLGSVVAE,-0.375 ± 0.5
15,TGYRFLSIIIAAADSDCELS,-0.706 ± 1.2
16,TGYVVVMVYCWSCLGGQSVA,0.119 ± 0.89
17,THCCSRYTPERVC,0.47 ± 0.4
18,THCLDCVPMNRVDNRCETFS,0.028 ± 0.36
19,THLVAPRSWLFIGPCRTKAS,0.385 ± 0.89
20,THQARVLNNVRALRSTFALL,2.5 ± 0.12
21,THSRFSYGVVNR,0.683 ± 1
22,THYNAGSCKMLNQAPFHRIS,-0.352 ± 0.33

row,Substance,amyloid nucleation score
1,TICVYSG,0.008 ± 0.49
2,TIGASKFMICWTDSFHLQSQ,3 ± 0.12
3,TIGFTHYCCSFKS,-1.23 ± 0.52
4,TIKEGSLITTDAKYLMGMMK,2.03 ± 0.19
5,TIKMDTQVLVYIRKRNKYCW,-0.746 ± 0.79
6,TILVNKRR,-1.28 ± 0.65
7,TILYVVARYF,-0.004 ± 0.35
8,TIMVVWCSGKDGSQVTWMQF,0.324 ± 0.34
9,TIRNMMMYYGSSKVSYRMNS,0.587 ± 0.22
10,TISLL,0.13 ± 0.43
11,TISLLTHVFLDVLWCGR,-0.779 ± 0.61
12,TIVLLNCISIRLSIRFMFIP,-0.251 ± 1
13,TIVSGTRSYNLHRSILLLHL,1.5 ± 0.23
14,TIWFAF,-0.128 ± 0.64
15,TKLAY,0.445 ± 0.49
16,TKLKNWGLNLGMASGNQSDR,-0.725 ± 0.45
17,TLAGRCINDCILEGDMSRCF,2.18 ± 0.57
18,TLCPLDFHRDTARELCPRGV,0.049 ± 0.4
19,TLCQFSSARACYAWVVFPTY,1.19 ± 0.21
20,TLDKDLDMGRP,0.625 ± 0.56
21,TLFLKDLSLLAFEFPLNISA,-0.507 ± 0.37
22,TLGTSGTSSV,-0.544 ± 0.49

row,Substance,amyloid nucleation score
1,TLHKFCLSGVHSFVGVTNST,0.06 ± 0.46
2,TLIIGYRA,0.964 ± 0.51
3,TLLIMLLYKSTILCVQPDLM,0.032 ± 0.6
4,TLLSNWVEMNPLYFMLDLPY,0.225 ± 0.48
5,TLNGFPLSISTANCEVRYDK,0.005 ± 0.9
6,TLNKARSDYFLKRSSE,-0.025 ± 1
7,TLRHALLRQTLSNLRQDGV,-0.009 ± 0.3
8,TLSGVYTFCMFLVWVDSASG,0.843 ± 0.62
9,TLVQCVSWISGSDKSHRMTI,-1.52 ± 2.7
10,TLVVGMRLDNHDHA,1.14 ± 0.21
11,TMAFVKLLNGSGNLEILKFS,0.785 ± 0.44
12,TMIGILWCSYINVALYSGGL,1.22 ± 0.28
13,TMLLDAYHEFKWANTNLFWL,-0.263 ± 0.93
14,TMSSSNQSQMFPSVIYSEGH,-0.209 ± 0.9
15,TNLLSLMMFDSKCIISEGIM,-0.567 ± 1.7
16,TNNSWCFFLRLGYT,5.05 ± 0.076
17,TNPYSWNLYCGFLNTDWVV,0.787 ± 0.85
18,TNRVTGSLWDEVWSDPGPEC,-1.28 ± 0.8
19,TNSFSSSLRMV,0.076 ± 0.88
20,TNWAVKGWAVECRRHSGPNT,1.45 ± 0.79
